Experimental data from patent publication US20180362625A1 (COMMONWEALTH SCIENTIFIC AND INDUSTRIAL RESEARCH ORGANISATION, published 2018).

Biological target: T1, interferon response factor 3 (IRF3), endogenous in HeLa cells (human, UniProt Q14653 1-427)
T1 construct: Phosphorylation state after poly(I:C) was not defined for the immunoprecipitated material
T1 sequence (looked up): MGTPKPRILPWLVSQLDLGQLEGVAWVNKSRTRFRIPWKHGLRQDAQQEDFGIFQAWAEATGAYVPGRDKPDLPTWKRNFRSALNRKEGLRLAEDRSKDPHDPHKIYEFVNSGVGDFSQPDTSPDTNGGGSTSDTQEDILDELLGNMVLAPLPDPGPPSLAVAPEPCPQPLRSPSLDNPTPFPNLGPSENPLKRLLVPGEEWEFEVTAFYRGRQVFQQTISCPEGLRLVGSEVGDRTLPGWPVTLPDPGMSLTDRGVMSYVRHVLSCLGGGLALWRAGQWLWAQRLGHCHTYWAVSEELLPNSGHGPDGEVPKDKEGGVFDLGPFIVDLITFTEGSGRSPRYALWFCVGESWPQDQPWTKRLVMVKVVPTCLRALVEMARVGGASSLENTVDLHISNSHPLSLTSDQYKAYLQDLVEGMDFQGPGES
Assay: co-immunoprecipitation from HeLa lysates with immobilised anti-IRF3 antibody, western blot, -/+ poly(I:C)
Method: Immunoprecipitation and cell fractionation: For immunoprecipitation, 25 μg of antibody was coupled to 50 μg of agarose beads using the Pierce direct immunoprecipitation kit as specified by the manufacturers (Life Technologies). Cells were lysed in NP-40 lysis buffer provided and pre-cleared with a non-specific isotype agarose control at 4° C. for 1 hour, then incubated with ˜1.5 μg agarose-coupled antibody at 4° C. overnight. Resin was washed multiple times then elution performed using non-reducing sample buffer (containing 2% w/v SDS) at 100° C. for 10 mins. Cytosolic and nuclear fractions were prepared from cells using the Pierce NE-PER cell fractionation kit (Life Technologies) as specified by the manufacturers, and total protein quantitated by BCA assay (Life Technologies) before western blot analyses.
To access whether C6orf106 binds IRF3, C6orf106-flag was co-expressed with GFP −/+ poly(I:C) as described above, then performed a direct co-immunoprecipitation with immobilised IRF3 antibodies. As shown in FIG. 10A C6orf106 could be detected in IRF3-immunoprecipitated lysates, and this was increased approximately four-fold in the presence of poly(I:C). […] Cells were lysed and subjected to […] immunoprecipitation with an anti-IRF3 antibody. IP samples and input controls were probed with anti-FLAG antibody for western blotting. […]

B1: Flag-tagged C6orf106 (C6orf106-FLAG, expressed from pCAGGs-C6-FLAG) (other)
chain: MEGMDVDLDPELMQKFSCLGTTDKDVLISEFQRLLGFQLNPAGCAFFLDMTNWNLQAAIGAYYDFESPNISVPSMSFVEDVTIGEGESIPPDTQFVKTWRIQNSGAEAWPPGVCLKYVGGDQFGHVNMVMVRSLEPQEIADVSVQMCSPSRAGMYQGQWRMCTATGLYYGDVIWVILSVEVGGLLGVTQQLSSFETEFNTQPHRKVEGNFNPFASPQKNRQSDENNLKDPGGSEFDSISKNTWAPAPDTWAPAPDQTEQDQNRLSQNSVNLSPSSHANNLSVVTYSKGLHGPYPFGQSGDYKDDDDK
notes: Over-expressed in HeLa or HEK293T cells and tested in cell lysates by co-immunoprecipitation
With B1 the “fold increase of C6orf106 co-immunoprecipitated with IRF3 in the presence of poly(I:C) versus without” value was about 4 fold.
